# Numbering of substitutions follows the chain as printed. Names may count otherwise.
# B1: V26I: mutation to UGT enzyme of SEQ ID NO: 14 (protein)
# chain: MATKNSSGMSLAERFWLTLSRSSLVIGRSCVEFEPETVPLLSTLRGKPITFLGLMPPLHEGRREDGEDATVRWLDAQPAKSVVYVALGSEVPLGVEKVHELALGLELAGTRFLWALRKPTGVSDADLLPAGFEERTRGRGVVATRWVPQMSILAHAAVGAFLTHCGWNSTIEGLMFGHPLIMLPITGDQGPNARLIEAKNAGLQVARNDGDGSFDREGVAAAIRAVAVEEESSKVFQAKAKKLQEIVADMACHERYIDGFIQQLRSYKDDSGYSSSYAAAAGMHVVICPWLAFGHLLPCLDLAQRLASRGHRVSFVSTPRNISRLPPVRPALAPLVAFVALPLPRVEGLPDGAESTNDVPHDRPDMVELHRRAFDGLAAPFSEFLGTACADWVIVDSFHHWAAAAALEHKVPCAMMLLGSAEMIASIADERLEHAETESPAAAGQGRPAAAPTFEVARMKLIR
# B2: R145S: mutation to UGT enzyme of SEQ ID NO: 14 (protein)
# chain: B1 chain with I26V, R145S
# B3: P39T: mutation to UGT enzyme of SEQ ID NO: 14 (protein)
# chain: B1 chain with I26V, P39T
# B4: T43D: mutation to UGT enzyme of SEQ ID NO: 14 (protein)
# chain: B1 chain with I26V, T43D
# B5: S29T: mutation to UGT enzyme of SEQ ID NO: 14 (protein)
# chain: B1 chain with I26V, S29T
# B6: L417F: mutation to UGT enzyme of SEQ ID NO: 14 (protein)
# chain: B1 chain with I26V, L417F
# B7: I152L: mutation to UGT enzyme of SEQ ID NO: 14 (protein)
# chain: B1 chain with I26V, I152L
# B8: L417M: mutation to UGT enzyme of SEQ ID NO: 14 (protein)
# chain: B1 chain with I26V, L417M
# B9: Q262E: mutation to UGT enzyme of SEQ ID NO: 14 (protein)
# chain: B1 chain with I26V, Q262E
# B10: V31P: mutation to UGT enzyme of SEQ ID NO: 14 (protein)
# chain: B1 chain with I26V, V31P
# B11: H99T: mutation to UGT enzyme of SEQ ID NO: 14 (protein)
# chain: B1 chain with I26V, H99T
# B12: C299A: mutation to UGT enzyme of SEQ ID NO: 14 (protein)
# chain: B1 chain with I26V, C299A
# B13: Y267H: mutation to UGT enzyme of SEQ ID NO: 14 (protein)
# chain: B1 chain with I26V, Y267H
# B14: L11I: mutation to UGT enzyme of SEQ ID NO: 14 (protein)
# chain: B1 chain with L11I, I26V
# B15: A238E: mutation to UGT enzyme of SEQ ID NO: 14 (protein)
# chain: B1 chain with I26V, A238E
# B16: T3R: mutation to UGT enzyme of SEQ ID NO: 14 (protein)
# chain: B1 chain with T3R, I26V
# B17: V95Q: mutation to UGT enzyme of SEQ ID NO: 14 (protein)
# chain: B1 chain with I26V, V95Q
# B18: D269R: mutation to UGT enzyme of SEQ ID NO: 14 (protein)
# chain: B1 chain with I26V, D269R
# B19: G94R: mutation to UGT enzyme of SEQ ID NO: 14 (protein)
# chain: B1 chain with I26V, G94R
# B20: ins_A2_T3_R: SEQ ID NO: 14 with insertion of Arg between A2 and T3 (protein)
# chain: MARTKNSSGMSLAERFWLTLSRSSLVVGRSCVEFEPETVPLLSTLRGKPITFLGLMPPLHEGRREDGEDATVRWLDAQPAKSVVYVALGSEVPLGVEKVHELALGLELAGTRFLWALRKPTGVSDADLLPAGFEERTRGRGVVATRWVPQMSILAHAAVGAFLTHCGWNSTIEGLMFGHPLIMLPITGDQGPNARLIEAKNAGLQVARNDGDGSFDREGVAAAIRAVAVEEESSKVFQAKAKKLQEIVADMACHERYIDGFIQQLRSYKDDSGYSSSYAAAAGMHVVICPWLAFGHLLPCLDLAQRLASRGHRVSFVSTPRNISRLPPVRPALAPLVAFVALPLPRVEGLPDGAESTNDVPHDRPDMVELHRRAFDGLAAPFSEFLGTACADWVIVDSFHHWAAAAALEHKVPCAMMLLGSAEMIASIADERLEHAETESPAAAGQGRPAAAPTFEVARMKLIR
# System: steviol glycoside
# Assay: steviol glycoside bioconversion by E. coli expressing individual mutations of UGT SEQ ID NO: 14
# Assay type: cell-based
# Conditions: fold improvement of % conversion vs parent UGT SEQ ID NO: 14; stevia leaf extract and glucose fed; 37° C., 48 hr
# Experimental: Fold improvement is with respect to % steviol glycoside conversion of the parent UGT enzyme of SEQ ID NO: 14. The UGT enzyme of SEQ ID NO: 15 has the following mutations from SEQ ID NO: 14: ins_A2_T3_RR, H59P, A238E, L417F. Stevia leaf extract and glucose were fed to the bioconversion strains. Bioconversion took place at 37° C. for 48 hr. Data were quantified by reverse phase LC DAD to quantify conversion of steviol glycosides.
# Fold improvement (FI) is with respect to % steviol glycoside conversion.
Molecule,FI %Stevioside→rebE,FI %rebA→rebD
B1,1.18,1.16
B2,1.06,1.14
B3,1.31,0.98
B4,1.29,1.08
B5,1.05,1.00
B6,1.34,1.24
B7,1.09,1.15
B8,1.02,1.02
B9,2.0,1.7
B10,1.22,1.08
B11,0.76,1.04
B12,0.76,1.03
B13,1.8,1.6
B14,1.39,1.16
B15,1.9,1.6
B16,1.9,1.6
B17,1.8,1.6
B18,2.0,1.7
B19,1.12,1.13
B20,1.9,1.6

# From patent publication US20260242839A1, “GLYCOSIDE PRODUCT BIOSYNTHESIS AND RECOVERY” (Manus Bio Inc., priority 2023, published 2026)
